In article PMC6308570:

Molecular target: thrombin (UniProt P00734;P00734 328-363;364-622)
Test: etched fiber Bragg grating biosensor (immobilized aptamer); thrombin 10, 20, 40, 80 nM; 5 mM MgCl2; Affinity buffer 50 mM Tris-HCl pH 7.4, 250 mM NaCl, 5 mM MgCl2; 2 h incubation; surface blocked with 1% BSA; temperature not stated

## TTTTTAGTCCGTGGTAGGGCAGGTTGGGGTGACT (ssDNA, 5' amino C6 (AmC6F)) [amine-modified thrombin binding aptamer (29-mer with T5 spacer)]
  binding result: binds
